Assay: yeast display, Sf9 membrane polyspecificity reagent, FACS + sequencing; frameworks hold sequencing errors
How it was run: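 A synthetic nanobody library was expressed on Saccharomyces cerevisiae BJ5465 by galactose induction for 36–48 hours. The library was stained for 1 hour at 4 °C with 10% biotinylated, detergent-solubilized Sf9 membrane reagent and enriched with streptavidin microbeads before FACS. Low and high (top ~1%) gates were set on anti-HA fluorescence for expression and streptavidin fluorescence for reagent binding, and each polyreactivity label reflects the gate of origin.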

| Sequence | polyreactivity (PSR sort gate) |
| --- | --- |
| QVQLVESGGGLVQAGGSLRLSCAASGSIFKSYAMGWYRHAPWKERELVASISSRGSSTNYADSVKGRFTISRDNAKITVYLQMNSLKPEDTEGYYCAAEVYRGKYWSTYRGGDYWGQGTQVTVSS | high polyreactivity |
| QVQLVESGGGLVQAGGSLRLSCAASGSIFKSYAMGWYRQPPGKERELVAAISWSGTSTYYADSVKGRFTISRDNAKNTVYLLMNSLKPEDTAVYYCNAVSVSSKRSDYWGQGTQVTVSS | low polyreactivity |
| QVQLVESGGGLVQAGGSLRLSCAASGSIFKTNAMGWYRQAPGKERELVAGISNGGSTNYADSVKGRFTISRDNAKNTVYLQMNSLKPEDTAVYYCATDFAVTKMEYWGQGTQVTVSS | low polyreactivity |
| QVQLVESGGGLVQAGGSLRLSCAASGSIFKTYAMGWYRQAPGKERELVAAISSGGSTYYADSVKGRFTISRDNAKNTVYLELNSLKPEDTAVYYCAADPWGAFVSFASYYYWGQGTQVTVSS | low polyreactivity |
| QVQLVESGGGLVQAGGSLRLSCAASGSIFKYNAMGWYRQAPGKERELVAAITIGGRTYYADSVKGRFTISRDNAKNTVYLQMNSLKPEDTAVYYCAGVVRALTIKYGYWGQGTQVTVSS | high polyreactivity |
| QVQLVESGGGLVQAGGSLRLSCAASGSIFKYNAMGWYRQAPGKERELVAAITNGGSTYADSVKGRFTISRDNAKNTVYLQMNSLKPEDTAVYYCNFYGQDGVNVTYDYWGQGTQVTVSS | low polyreactivity |
| QVQLVESGGGLVQAGGSLRLSCAASGSIFKYNTMGWYRQAPGKERELVAAIRYSGGRTYYADSVKGRFTISRDYAKNTVYLQMNSLKPEDTAVYYCAAGSIQYRPTYTGDYWGQGTQVTVSS | high polyreactivity |
| QVQLVESGGGLVQAGGSLRLSCAASGSIFKYYAKGWYRQAPGKERELVAAITIGGNTNYADSVKGRFTISRDNAKNTVYLQMNSLKPEDTAVYYCATGGYYSAIVYGGYDYWGQGTQVTVSS | low polyreactivity |
| QVQLVESGGGLVQAGGSLRLSCAASGSIFKYYAMGSSRQAPGKERELVAAISTGGTTNYADSVKGRFTISRDNAKNTVYLQMNSLKPEDTAVYYCNRDYLVRSRYKYYYWGQGTQVTVSS | low polyreactivity |
| QVQLVESGGGLVQAGGSLRLSCAASGSIFKYYAMGWYRQAPGKERELVAAISTGGTTNYADYVKGRFTISRDNAKNTVYLQMNSLKPEDTAVYYCNRDYLVRSRYKYYYWGQGTQVTVSS | low polyreactivity |
| QVQLVESGGGLVQAGGSLRLSCAASGSIFKYYTMGWSRQAPGKERELVAAINSSGGSTYYADSVKGRFTISRYNAKNTVYLQMYSLKPEDTAVYYCIAVTSRRWRYELDYLGQGTQVTVSS | high polyreactivity |
| QVQLVESGGGLVQAGGSLRLSCAASGSIFKYYTMGWYRQAPGKERELVAAITYTGGRTYYADSVKGRFTISRDNAKNTVYLQMNSPKPEDTAVYYCAKDGPATVRRGYDYWGQGTQVTVSS | high polyreactivity |
| QVQLVESGGGLVQAGGSLRLSCAASGSIFLAYAMGCYRQATAKEREFVAANSFSDGSTYYADSVKGRFTISRDNAKNTVYLQMNSLKPEDTAVYYCNKGASPDDYDYWGQGTQVTESS | low polyreactivity |
| QVQLVESGGGLVQAGGSLRLSCAASGSIFLAYDMGWYRQAPGKERELVAGITSGGTTYYADSVKGRFTISRDNAKNTVYLQMNSLKPEDTAVYYCAVEPVFIVSEVLFDYWGQGTQVTVSS | low polyreactivity |
| QVQLVESGGGLVQAGGSLRLSCAASGSIFLAYLKGWYRQAPGKERELVAAISYRGVSTYYADSVKGRFTISRDNAKNTVYLQMTRLNPEDTAVYYFAAEHLWGAVFLYVRSTGLDYWGQGTQVTVSS | low polyreactivity |
| QVQLVESGGGLVQAGGSLRLSCAASGSIFLDYAMGWYRQAPGKERELVAANTSDGSTYYADSVKGRFTISRDKAKNTVYLQMNSLKPEDTAVYYCAVQDTSYDVQYSYGYWGQGTHVTVSS | low polyreactivity |
| QVQLVESGGGLVQAGGSLRLSCAASGSIFLFYAMGWYRQAPGKERELVAAISYSGGRTYYADSVKGRFTISRDNAKNTVYLQMNSLNPEDTAVYYCAAVGYSSYPYRRFDYWGQGTQVTVSS | high polyreactivity |
| QVQLVESGGGLVQAGGSLRLSCAASGSIFLHNAMGWYRQAPGTERELVAGITSSGTSTYYADSVKGRFTISRDIAKNTVYLQMNSLKPEDTAVYYCAAYRYGSRGGYWGQGTHVTVSS | high polyreactivity |
| QVQLVESGGGLVQAGGSLRLSCAASGSIFLIYAMGWYRQAPGKERELVAAINYSGVRTYYADSEKGRFTISRDYAKNTLYLPMNSLKPEETAVYYCAPDATSYSYRYNYWGQGTQVTVSS | high polyreactivity |
| QVQLVESGGGLVQAGGSLRLSCAASGSIFLNNAMGWYRQAPGKERELVAAITRNVGSTYYADSVKGRFTISRDNAKNTVYLQMNSLKPEDTAVYYCAADRRRRYDYWGQGTQVTVSS | low polyreactivity |
| QVQLVESGGGLVQAGGSLRLSCAASGSIFLPNAMGWYRQAPGKERELVAVITGGGSTKYADSVKGRFTISRDNAKNTVYLQMNSLKPEDTAVYYCNAQSPVDPSCDYWGRGTQVTVSS | low polyreactivity |
| QVQLVESGGGLVQAGGSLRLSCAASGSIFLQYAMGWYRQAPGKERELVAAITTSGRTYYADSVKGRFTISRDNAKYTVYLQMNSLKPEDTAVYYCAATWRYGYYAYYYWGQGTQVTVSS | high polyreactivity |

| Sequence | polyreactivity (PSR sort gate) |
| --- | --- |
| QVQLVESGGGLVQAGGSLRLSCAASGSIFLRNAMGWYRQAPGKERALVAAISWGGRTYYADSVKGRFTISRDNAKNTVYLQMNSLKPEDTAVYYCAADGTWVRSPHFYYWGQGTQVTVSS | low polyreactivity |
| QVQLVESGGGLVQAGGSLRLSCAASGSIFLRNAMGWYRQAPGKERELVAAISWGGRTYYADSVKGRFTISRDNAKNTVYLQLNSLKPEDRAVYYCSADGTWVRSPHFYYWGQGTQVTVSS | low polyreactivity |
| QVQLVESGGGLVQAGGSLRLSCAASGSIFLRYAMGWYRQAPGKERELVATISKSGGSTYYADSVKGRFTISRDNAKNTVYLQMNSLKPEDTAVYYCAAGYVYFQTYYYWGQGTQVTVSS | high polyreactivity |
| QVQLVESGGGLVQAGGSLRLSCAASGSIFLRYAMGWYRQAPGKERELVATITSGGRTKYADSVKGRFTISRDNAKNTVYLQMNSLKPEDTAVYYCNAKTQSLKRSTFNYWGQGTQVTVSS | low polyreactivity |
| QVQLVESGGGLVQAGGSLRLSCAASGSIFLRYGMGWYRQAPGKERELVAAISRGGGSTYYADSVKGRFTISRDNAKNTVYLQMNSLKPEDTAVYYCNKASYRYSSDYDYWGQGTQVTVSS | high polyreactivity |
| QVQLVESGGGLVQAGGSLRLSCAASGSIFLSNAMGWYRQAPGKERELVASISGSGSTNYADSVKGRFTISRDNAKNTVYLQMNSLKPEDTAVYYCAAYQRYDSVTGARYEYDYWGQGTQVTVSS | low polyreactivity |
| QVQLVESGGGLVQAGGSLRLSCAASGSIFLSYAMGWYRQAPGKERELVAAISRRGVRTYYADSVKGRFTISRDNAKNTVYLQMNSLKPEDTAVYYCAKDAYFPPWTYGSIFGLYDYWGQGTQVTVSS | low polyreactivity |
| QVQLVESGGGLVQAGGSLRLSCAASGSIFLVYAMGWYRQAPGKERELVAAISSDGDDTYYADSVKGRFTISRDNAKNTVYLQMNSLKPEDTAVYYCAAESYTYYADYGYGYWGQGTQVTVSS | high polyreactivity |
| QVQLVESGGGLVQAGGSLRLSCAASGSIFLVYAMGWYRQAPGKERELVAGITSDDSTNYADSVKGRFTISRDNAKNTVYLQINRLKPEDTAVYYCAKDSLGLYIVDLGYWGQGTQVTVSS | low polyreactivity |
| QVQLVESGGGLVQAGGSLRLSCAASGSIFLVYSMGWYRQAPGKERELVAAISRSGRTYADSVKGRFTISRDNAKNTVYLQMNSLKPEDTAVYYCNKLAVRPGYGSTYDYWGQGTQVTVSS | high polyreactivity |
| QVQLVESGGGLVQAGGSLRLSCAASGSIFLWNAMGWYRQAPGKERELVAAITWRGGSTYYADSVKGRFTISRDNAKNTVYLQMNSLKPEDTAVYYCAADSYDWMDYWGQGTQVTVSS | low polyreactivity |
| QVQLVESGGGLVQAGGSLRLSCAASGSIFLWYAMGWSRQAPGKERELVAALTYSGGTTYYADSVKGRFTISRDNAKNTVYLQLNSLKPEDTAVYYCAKRTAVWTSGGYRKRDYWGQGTQVTVSS | high polyreactivity |
| QVQLVESGGGLVQAGGSLRLSCAASGSIFLWYDMGWYRQAPGKEREFVASITRSGGSTYYADSVKGRFTISRDNAKNTVYLQMNSLKPEDTAVYYCAAGRRSSWRYYLWYDYWGQGTQVTVSS | low polyreactivity |
| QVQLVESGGGLVQAGGSLRLSCAASGSIFLYNAMGWYRQAPGKERELVAAISKSGGSTYYADSVKGRFTISRDNAKNTVYLQMNSLKPEDTAVYYCAAGYGRRIRYGSEYDYWGQGTLVTVSS | low polyreactivity |
| QVQLVESGGGLVQAGGSLRLSCAASGSIFLYYAMGWYRQAPGKERELVAAISQNGGSTYYADSVKGRFTISRDNAKNTVYLQMNSLKPEDTAVYYCNKYSFALRYDYWGQGTQVTVSS | low polyreactivity |
| QVQLVESGGGLVQAGGSLRLSCAASGSIFLYYAMGWYRQAPGKERELVAAISYSGASTYYADSVKGRFTISRDNAKNTVYLQMNSLKPEDTAVYYCARDYGQYVGEGCYWGQGTQVTVSS | low polyreactivity |
| QVQLVESGGGLVQAGGSLRLSCAASGSIFLYYAMGWYRQAPGKERELVAVITSGGITNYADSVKGRFTISRDNAKNTFYLQMNSLKPEDTAVYYCNKEYYITYFDLVYSSLDYWGQGTQVTVSS | low polyreactivity |
| QVQLVESGGGLVQAGGSLRLSCAASGSIFLYYAMGWYRQAPGNERELVAGINRVGSTNYADSVKGRFTISRDNAKNTVYLQMNSLKPEDTAVYYCNKRATRSRRRGYWGQGTQVTVSS | low polyreactivity |
| QVQLVESGGGLVQAGGSLRLSCAASGSIFNANAMGLYIQAPGKERELVASISGGAGSTYYADSVKGRFTISRDNAKNTVYLQMNSLKPEDTAVYYCNARWQEPLKYDYWGQGTQVTVSS | low polyreactivity |
| QVQLVESGGGLVQAGGSLRLSCAASGSIFNAYDMGWYRQAPGKERELVAGISSSDSTYYADSVKGRFTISRDNAKNTVYLQMNSLIPEDTAVYYCAADPVFAAAYIHLYGIYDSWGQGTQVTVSS | low polyreactivity |
| QVQLVESGGGLVQAGGSLRLSCAASGSIFNGNDMGWYRQAPGKERELVASITSNGGRTYYADSVKGRVTISRDNAKNTVYLQMNSLKPEDTAVYYCAAGYYILYIWKFDYWGQGTQVTVSS | high polyreactivity |

Reference: the nanobody polyreactivity screen of Harvey et al. (2022)
